From US6884600 (MEDICAL RESEARCH COUNCIL LONDON, dated 2005)
One block for each binder: values may come before it.

B3: β isoform of PP1c released from rabbit skeletal muscle PP1G (enzyme, UniProt P62143 2-327, looked up)
chain: ADGELNVDSLITRLLEVRGCRPGKIVQMTEAEVRGLCIKSREIFLSQPILLELEAPLKICGDIHGQYTDLLRLFEYGGFPPEANYLFLGDYVDRGKQSLETICLLLAYKIKYPENFFLLRGNHECASINRIYGFYDECKRRFNIKLWKTFTDCFNCLPIAAIVDEKIFCCHGGLSPDLQSMEQIRRIMRPTDVPDTGLLCDLLWSDPDKDVQGWGENDRGVSFTFGADVVSKFLNRHDLDLICRAHQVVEDGYEFFAKRQLVTLFSAPNYCGEFDNAGGMMSVDETLMCSFQILKPSEKKAKYQYGGLNSGRPVTPPRTANPPKKR
notes: mature; also called PP1 catalytic subunit

Experiments:
[1] = target: B3; experiment: cell-based or functional assay
[2] = target: T1, myosin from chicken gizzard, dephosphorylated form (chicken, UniProt P10587 2-1979; P02612 2-172; P02607 2-151); experiment: not described in Example 1
T1 construct: mature; Native protein pelleted by centrifugation; 1 µM in terms of heavy chains; also called myosin dimer
T1 sequence (P10587 2-1979, chain 1 of 3): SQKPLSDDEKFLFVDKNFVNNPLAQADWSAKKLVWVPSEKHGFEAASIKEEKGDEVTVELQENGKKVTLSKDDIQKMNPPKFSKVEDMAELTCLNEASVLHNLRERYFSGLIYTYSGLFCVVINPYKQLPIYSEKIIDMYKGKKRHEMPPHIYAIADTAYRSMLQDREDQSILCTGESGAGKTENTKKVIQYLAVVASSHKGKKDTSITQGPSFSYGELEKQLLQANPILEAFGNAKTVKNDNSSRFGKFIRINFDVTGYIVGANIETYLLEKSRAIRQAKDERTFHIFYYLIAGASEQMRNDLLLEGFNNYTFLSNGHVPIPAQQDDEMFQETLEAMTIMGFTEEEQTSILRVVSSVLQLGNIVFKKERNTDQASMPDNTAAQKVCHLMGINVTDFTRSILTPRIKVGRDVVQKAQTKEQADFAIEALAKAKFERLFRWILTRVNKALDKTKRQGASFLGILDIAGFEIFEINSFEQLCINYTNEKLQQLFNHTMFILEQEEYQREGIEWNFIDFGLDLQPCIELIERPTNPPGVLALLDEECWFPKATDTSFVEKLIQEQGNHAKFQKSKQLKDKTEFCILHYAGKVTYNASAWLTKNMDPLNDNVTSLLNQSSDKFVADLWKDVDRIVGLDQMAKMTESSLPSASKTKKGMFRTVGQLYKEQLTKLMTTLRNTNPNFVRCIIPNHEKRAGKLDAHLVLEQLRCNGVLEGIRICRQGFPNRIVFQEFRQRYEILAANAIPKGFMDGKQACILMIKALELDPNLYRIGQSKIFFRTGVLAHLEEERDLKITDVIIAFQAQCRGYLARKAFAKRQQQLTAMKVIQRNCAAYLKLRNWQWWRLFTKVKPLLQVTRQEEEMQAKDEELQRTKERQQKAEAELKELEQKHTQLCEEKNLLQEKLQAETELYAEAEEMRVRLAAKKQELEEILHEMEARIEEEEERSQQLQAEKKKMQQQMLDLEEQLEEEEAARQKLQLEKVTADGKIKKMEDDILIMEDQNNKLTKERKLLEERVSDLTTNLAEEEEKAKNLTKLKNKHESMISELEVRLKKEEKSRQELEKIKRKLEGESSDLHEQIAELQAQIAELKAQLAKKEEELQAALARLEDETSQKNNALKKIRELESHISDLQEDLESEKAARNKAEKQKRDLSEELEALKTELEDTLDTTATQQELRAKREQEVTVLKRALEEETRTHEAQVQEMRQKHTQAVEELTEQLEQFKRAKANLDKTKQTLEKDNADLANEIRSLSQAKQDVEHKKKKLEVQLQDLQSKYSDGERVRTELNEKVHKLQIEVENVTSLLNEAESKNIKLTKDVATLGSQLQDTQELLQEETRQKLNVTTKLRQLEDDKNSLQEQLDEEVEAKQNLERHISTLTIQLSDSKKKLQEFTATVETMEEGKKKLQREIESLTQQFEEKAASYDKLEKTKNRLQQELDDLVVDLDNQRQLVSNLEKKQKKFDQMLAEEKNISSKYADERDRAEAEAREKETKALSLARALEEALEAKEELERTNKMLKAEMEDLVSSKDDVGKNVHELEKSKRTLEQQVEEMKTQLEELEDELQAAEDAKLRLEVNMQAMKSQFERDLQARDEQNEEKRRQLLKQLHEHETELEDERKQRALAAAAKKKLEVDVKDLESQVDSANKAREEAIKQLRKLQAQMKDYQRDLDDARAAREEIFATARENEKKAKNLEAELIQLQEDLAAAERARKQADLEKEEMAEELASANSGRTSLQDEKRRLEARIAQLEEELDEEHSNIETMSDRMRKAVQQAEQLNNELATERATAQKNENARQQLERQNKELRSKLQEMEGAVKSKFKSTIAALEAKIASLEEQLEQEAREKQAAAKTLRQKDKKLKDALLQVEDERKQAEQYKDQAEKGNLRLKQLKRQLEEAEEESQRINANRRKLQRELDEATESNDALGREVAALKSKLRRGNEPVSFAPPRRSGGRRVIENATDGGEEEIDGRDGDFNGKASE
T1 sequence (P02612 2-172, chain 2 of 3): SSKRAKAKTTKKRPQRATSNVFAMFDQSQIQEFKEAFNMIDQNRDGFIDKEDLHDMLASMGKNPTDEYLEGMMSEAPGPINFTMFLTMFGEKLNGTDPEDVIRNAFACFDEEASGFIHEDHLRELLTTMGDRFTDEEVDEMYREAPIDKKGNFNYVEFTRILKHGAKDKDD
T1 sequence (P02607 2-151, chain 3 of 3): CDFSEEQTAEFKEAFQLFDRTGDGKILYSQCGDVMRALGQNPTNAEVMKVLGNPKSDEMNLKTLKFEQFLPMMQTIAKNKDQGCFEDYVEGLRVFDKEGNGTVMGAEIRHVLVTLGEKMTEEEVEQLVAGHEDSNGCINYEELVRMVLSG

[3] = target: T2, MBP-M110-(K933-I1004) (chicken, UniProt Q90623 933-1004, digoxigenin label when used as probe); experiment: Far Western, blot probed with digoxigenin-labelled MBP-M110-(K933-I1004)
T2 construct: also called digoxigenin-labelled MBP-M110-(K933-I1004); digoxigenin-labelled M110-(K933-I1004)
T2 sequence: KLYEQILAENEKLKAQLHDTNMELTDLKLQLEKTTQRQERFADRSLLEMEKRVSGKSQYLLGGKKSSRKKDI
Method: A) GST-$M21$ 5 μg (track 1), $M21$ 5 μg (track 2), $M21$-(M1-L146) 5 μg (track 3), $M21$-(M1-E110) 20 μg (track 4) and $M21$-(E110-K186) 5 μg (track 5) were run on 16.5% polyacrylamide gels and stained with Coomassie Blue. The marker proteins ovalbumin (43 kDa) and carbonic anhydrase (29 kDa) are indicated. B) GST-$M21$ 0.5 μg (track 1), $M21$ 0.5 μg (track 2), $M21$-M1-L146) 0.5 μg (track 3), $M21$-(M1-E110) 5 μg (track 4) and $M21$-(E110-K186) 5 μg (track 5) were electrophoresed as in A) and after transfer to nitrocellulose the blots were probed with digoxigenin-labelled MBP-$M110$-(K933-I1004) (0.2 μg/Ml). C) same as B) except that, after electrophoresis, the proteins were transferred to nitrocellulose and probed with digoxigenin-labelled $M21$ subunit (0.2 μg/ml).

[4] = target: T1, myosin from chicken gizzard, …; experiment: co-sedimentation with myosin, phosphatase activity in pellet and supernatant
Method: The PP1 catalytic subunit (PP1c), PP1_M, or PP1_M lacking the $M21$ subunit, $PP1_M(\Delta M21)$, each at 30 nM, were incubated for 15 min at 0° C. with 1 μM myosin and centrifuged (see Methods of Example 3). […] The results shown are the average (±S.E.M.) for three separate experiments each assayed in duplicate.
Myosin binding assays. Myosin (0.5 mg/ml, 1 µM in terms of myosin heavy chains) in 10 mM Hepes pH 7.5, 50 mM KCl, 5 mM MgCl2, 0.1% (by vol) 2-mercaptoethanol, was mixed with PP1_M, M$21$ subunit, or fragments of the M$110$ and M$21$ subunits, at the concentrations indicated in figure legends. After incubation for 15 min at 0° C., the solutions were centrifuged for 2 min at 13,000×g, the supernatants removed, and the pellets washed twice in 10 mM Hepes pH 7.5, 50 mM KCl, 5 mM MgCl2, 0.1% (by vol) 2-mercaptoethanol before resuspension in 50 mM Tris-HCl pH 7.5, 0.1 mM EGTA, 0.03% (by mass) Brij 35, 0.6 M NaCl, 0.1% (by vol) 2-mercaptoethanol. Aliquots of the supernatant, the resuspended pellet and the suspension before centrifugation were either assayed for myosin P-light chain phosphatase activity or denatured in SDS and analysed by SDS/polyacrylamide gel electrophoresis.

MLC20 phosphatase activity of PP1c [1]: ~3 fold
binding result [2]: no binding
B1: M110-(M1-E309), released from GST with thrombin (other)
chain: GSPGMKMADAKQKRNEQLKRWIGSETDLEPPVVKRQKTKVKFDDGAVFLAACSSGDTDEVLKLLHRGADINYANVDGLTALHQACIDDNVDMVKFLVENGANINQPDNEGWIPLHAAASCGYLDIAEFLIGQGAHVGAVNSEGDTPLDIAEEEAMEELLQNEVNRQGVDIEAARKEEERIMLRDARQWLNSGHISDVRHAKSGGTALHVAAAKGYTEVLKLLIQAGYDVNIKDYDGWTPLHAAAHWGKEEACRILVDNLCDMETVNKVGQTAFDVADEDILGYLEELQKKQNLLHSEKRDKKSPLIESTANMEA
notes: Rat aorta M110 fragment; free GST was left in the solution after cleavage; also called M100-(M1-E309)

binding result [3]: no binding (tested: 0.2 µg/ml probe)
B2: M21-(M1-E110), released from GST with thrombin (other)
chain: MSSLFTRSKEYTRSRKSQSDSPPSSPSPIAKTLRHERLSRLEAATTPATSDSYSDRASSRSSAYSRRENRLAALSSRAEEESNRDYKKLYESALSENQKLKSKLQEAQLEA
notes: not shown: the few vector residues left at the N terminus after thrombin cleavage of the modified pGEX fusion

Binder: B3
binding result [4]: no binding (tested: 30 nM with 1 µM myosin)
